{"source": "patent US20240301022A1", "about": "(ASTON UNIVERSITY, published 2024)", "key": {"[1]": {"molecular_target": "T1, human β3-adrenergic receptor (human, UniProt P13945 1-408)", "T1 construct": "whole, on cells; CHO-K1 cells transfected with the β3-AR, from Astra Zeneca; also called β3-AR; β-3AR", "T1 sequence (P13945 whole entry)": "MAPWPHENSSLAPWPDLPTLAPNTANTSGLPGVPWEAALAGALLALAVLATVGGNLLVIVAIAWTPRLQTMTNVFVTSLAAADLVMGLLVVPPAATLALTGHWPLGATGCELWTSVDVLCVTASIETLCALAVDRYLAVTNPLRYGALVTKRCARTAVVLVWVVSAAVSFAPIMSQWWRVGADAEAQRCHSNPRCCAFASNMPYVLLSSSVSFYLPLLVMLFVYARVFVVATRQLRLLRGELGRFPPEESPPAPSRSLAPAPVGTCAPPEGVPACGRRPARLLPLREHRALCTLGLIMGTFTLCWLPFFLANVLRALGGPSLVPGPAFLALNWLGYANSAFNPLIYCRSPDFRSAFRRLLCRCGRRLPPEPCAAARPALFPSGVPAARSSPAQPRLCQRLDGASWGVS", "assay": "[125I] ZAG binding to crude membranes of transfected CHO-K1 cells; reference is ZAG on β2-AR", "description": "(§1) Binding studies were carried out at 37° C. by incubating membranes (500 μg protein) in 0.4 ml 50 mM Tris HCl, pH 7.5, containing 0.5 mM MgCl₂ for 60 min with various concentrations of [¹²⁵I]\n(§2) Non-specific binding was determined by the binding of [¹²⁵I]"}, "[2]": {"molecular_target": "T2, human β2-adrenergic receptor (human, UniProt P07550 1-413)", "T2 construct": "whole, on cells; CHO-K1 cells transfected with the human β2-AR, from the University of Nottingham; also called β2-AR; β-2AR", "assay": "[125I] ZAG binding to crude membranes of transfected CHO-K1 cells; reference is ZAG on β3-AR", "description": "as §1, §2"}, "[3]": {"molecular_target": "T3, human β1-adrenergic receptor (human, UniProt P08588 1-477)", "T3 construct": "whole, on cells; CHO-K1 cells transfected with the human β1-AR, from the University of Nottingham; also called β1-AR; β-1AR", "T3 sequence (P08588 whole entry)": "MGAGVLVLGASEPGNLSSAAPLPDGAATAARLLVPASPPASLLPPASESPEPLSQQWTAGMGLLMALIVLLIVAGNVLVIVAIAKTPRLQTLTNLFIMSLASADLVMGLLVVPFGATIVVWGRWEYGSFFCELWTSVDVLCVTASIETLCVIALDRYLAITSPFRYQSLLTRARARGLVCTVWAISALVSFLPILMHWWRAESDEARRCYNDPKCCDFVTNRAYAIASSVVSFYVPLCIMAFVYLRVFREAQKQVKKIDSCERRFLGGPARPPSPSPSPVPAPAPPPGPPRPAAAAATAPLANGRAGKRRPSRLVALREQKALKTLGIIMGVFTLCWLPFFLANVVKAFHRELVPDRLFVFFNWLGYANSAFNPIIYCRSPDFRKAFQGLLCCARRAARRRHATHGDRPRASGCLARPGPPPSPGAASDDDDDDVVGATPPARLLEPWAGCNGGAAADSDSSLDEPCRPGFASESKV", "assay": "[125I] ZAG binding to crude membranes of CHO-K1 cells transfected with human β1-AR, non-linear regression", "description": "as §1, §2"}, "[4]": {"molecular_target": "T2, human β2-adrenergic receptor", "assay": "[125I] ZAG saturation binding to crude membranes of CHO-K1 cells transfected with human β2-AR, non-linear regression", "description": "as §1, §2"}, "[5]": {"molecular_target": "T1, human β3-adrenergic receptor", "assay": "[125I] ZAG saturation binding to crude membranes of CHO-K1 cells transfected with human β3-AR, non-linear regression", "description": "as §1, §2"}}, "data": [{"binder": "recombinant human zinc-α2-glycoprotein (ZAG) (ligand, 125I label (iodo bead labelling) in the membrane binding studies; labelled residues not stated, Glycoprotein; also called Zn-α2-glycoprotein; rhZAG) QENQDGRYSLTYIYTGLSKHVEDVPAFQALGSLNDLQFFRYNSKDRKSQPMGLWRQVEGMEDWKEDSQLQKAREDMETLKDIVEYYNDSNGSHVLQGRFGCEIENNRSSGAFWKYYYDGKDYIEFNKEIPAWVPFDPAAQITKQKWEAEPVYVQRAKAYLEEECPATLRKYLKYSKNILDRQDPPSVVVTSHQAPGEKKKLKCLAYDFYPGKIDVHWTRAGQVQEPELRGDVLHNGNGTYQSWVVVAVPPQDTAPYSCHVQHSSLAQPLVVPWEAS", "values": [{"measurement": "Bmax relative to β2-AR", "setting": "[1]", "value": "~3", "unit": "fold"}, {"measurement": "Kd relative to β2-AR", "setting": "[1]", "value": "~0.5", "unit": "fold"}, {"measurement": "Bmax relative to β3-AR", "setting": "[2]", "value": 20, "unit": "%"}, {"measurement": "Kd relative to β3-AR", "setting": "[2]", "value": 2, "unit": "fold"}, {"measurement": "binding result", "setting": "[3]", "value": "no binding"}, {"measurement": "Kd", "setting": "[4]", "value": 0.071, "unit": "µM"}, {"measurement": "Kd", "setting": "[5]", "value": 0.046, "unit": "µM"}]}]}
